# Patent US9389219B2, “Methods for screening inhibitors of tumor associated protein aggregation” (Vrije Universiteit Brussel, priority 2011, dated 2016)
# Experiments:
# [1] = molecular target: p53β (p53-aggregating sequence ILTIITL) (Homo sapiens, UniProt P04637); test: In vitro peptide-binding assay (PepSpot membrane, biotinylated p53β peptide, streptavidin-HRP); settings: immobilized peptide, p53β self-interaction = 100,00
# Excerpt: In order to identify aggregating peptides that match p53β, the human proteome for peptides that have high homology with the p53β peptide were screened. While p53β is unique to p53, in silico analysis identified 56 additional peptides (Table 2) that have no more than two mismatches with p53β. Subsequently, the ability of the selected peptides to interact with p53β using an in vitro peptide-binding assay was empirically determined. Therefore, the 56 selected peptides were spot-synthesized on a cellulose membrane, which was subsequently incubated with biotinylated p53β peptide (FIG. 17, panel b). After washing, the membrane was treated with streptavidine-HRP to detect p53β binding (FIG. 17, panel c). Consistently, the assay successfully identified control peptides including p53β itself, as well as the equivalent sequences from p63 and p73. […] The sequence identity between p53β and their interacting peptide, however, is 75%. Although the function of the proteins from which these 33 interacting peptides stem is often poorly characterized, some interesting cases can be identified. Along with the previously identified p63 and p73, which are inactivated by mutant p53 in cancer, segments were found belonging to Copine-2 (CPNE2), which is a negative regulator of growth factor signaling,^72 methionine synthase (METH), which has been associated to methionine dependence in tumors,^64 CGRF1, a negative regulator of cell proliferation,^67 and caspase-8 (CASP8), a key element for apoptosis, the inactivation of which is associated to chemoresistance and found in a variety of human cancers.^66
# Peptides of selected sequences were spot synthesized on PVDF membrane (PepSpot, JPT). The membranes were blocked by 1% BSA in phosphate-buffered saline for 1 hour at room temperature, and then incubated with biotinylated peptide containing the p53-aggregating sequence for 1 hour. After rinsing with 0.1% TWEEN® 20 in 25 mM MES buffer pH 7.0, membranes were incubated in HRP-labeled Streptavidin (Thermo) and visualized with electrochemical luminescence (ECL) system.
# WT p53 in U2OS cells [2] = test: Western blot of p53 in U2OS cells treated with chemotherapeutic agents; type: cell-based, human
# WT p53 in U2OS cells [3] = test: Native page analysis of p53 in treated U2OS cells; type: cell-based, human
Compound,Binding intensity (normalized) [1],other results
ITTGITL (listed as Homo sapiens) [peptide from CGRF1_HUMAN],"36,69",
LLTIETL (listed as Homo sapiens),"26,55",
ILTKSTL (listed as Homo sapiens) [peptide from CND2_HUMAN],"17,86",
ILTNTTL (listed as Homo sapiens) [peptide from CC132_HUMAN],"76,96",
ILTICTK (listed as Homo sapiens),"6,48",
LLTIILL (listed as Homo sapiens),"3,95",
ILTSQTL (listed as Homo sapiens),"2,39",
IKSIITL (listed as Homo sapiens) [peptide from CT132_HUMAN],"4,39",
VLTISTL (listed as Homo sapiens),"6,72",
COc1cccc2c1C(=O)c1c(O)c3c(c(O)c1C2=O)C[C@@](O)(C(=O)CO)C[C@@H]3O[C@H]1C[C@H](N)[C@H](O)[C@H](C)O1 [doxorubicin],,p53 expression level (Western blot) (WT p53 in U2OS cells [2]): increased expression levels of p53; p53 high molecular-weight species (native page) (WT p53 in U2OS cells [3]): high molecular-weight species of p53
ILTDVTL (listed as Homo sapiens),"5,88",
ITTVITL (listed as Homo sapiens) [peptide from CD041_HUMAN],"5,27",
ILTIGTG (listed as Homo sapiens),"49,22",
IVTIITA (listed as Homo sapiens),"17,21",
CC(C)C[C@H](NC(=O)[C@H](Cc1ccccc1)NC(=O)c1cnccn1)B(O)O [Bortezomib],,p53 high molecular-weight species (native page) (WT p53 in U2OS cells [3]): smear was comparable
GLTIPTL (listed as Homo sapiens),"10,86",
KLTIITS (listed as Homo sapiens) [peptide from CM031_HUMAN],"17,88",

Compound,Binding intensity (normalized) [1],other results
ILTIVSL (listed as Homo sapiens) [peptide from DHX33_HUMAN],"10,20",
ALTFITL (listed as Homo sapiens) [peptide from BN3D2_HUMAN],"6,47",
ALVIITL (listed as Homo sapiens) [peptide from CCNI2_HUMAN],"43,37",
IEVIITL (listed as Homo sapiens) [peptide from CXL11_HUMAN],"8,54",
ILTITTP (listed as Homo sapiens) [peptide from CBPC3_HUMAN],"19,59",
MLTEITL (listed as Homo sapiens),"3,03",
IYTGITL (listed as Homo sapiens),"32,12",
ILQIITE (listed as Homo sapiens) [peptide from DHX29_HUMAN],"15,64",
ILDIITS (listed as Homo sapiens) [peptide from ANXA6_HUMAN],"78,87",
ILTILTE (listed as Homo sapiens) [peptide from CASP8_HUMAN],"11,43",
ILTIITL (listed as Homo sapiens),"100,00",
LLTIINL (listed as Homo sapiens),"1,55",
ILKNITL (listed as Homo sapiens) [peptide from BPA1_HUMAN],"12,10",
ILRQITL (listed as Homo sapiens) [peptide from CD2A1_HUMAN],"14,74",
ILKQITL (listed as Homo sapiens),"19,84",
ILTILCL (listed as Homo sapiens),"4,81",
ILLIITD (listed as Homo sapiens) [peptide from CPNE2_HUMAN],"111,13",

# Second part, led by results:
Binding intensity (normalized) [1],Compound,other results
"30,92",RRPILTIITLEDGS (listed as Homo sapiens) [reference compound],
"10,18",TLTISTL (listed as Homo sapiens) [peptide from KV117_HUMAN],
"79,63",ILSIDTL (listed as Homo sapiens) [peptide from SPEF2_HUMAN],
"98,99",ILIIITL (listed as Homo sapiens) [peptide from P73_HUMAN],
"33,34",ILTKYTL (listed as Homo sapiens) [peptide from NOL11_HUMAN],
"3,67",CLTIITG (listed as Homo sapiens) [peptide from TRI18_HUMAN],
"12,86",ILTEIHL (listed as Homo sapiens) [peptide from RFC5_HUMAN],
"26,40",FLTIFTL (listed as Homo sapiens) [peptide from PRA10_HUMAN],
"16,85",ILGKITL (listed as Homo sapiens) [peptide from MP2K4_HUMAN],
"9,72",IKTIINL (listed as Homo sapiens) [peptide from PTPC1_HUMAN],
"26,33",ILQIISL (listed as Homo sapiens) [peptide from PK3C3_HUMAN],
"14,09",ILTIKEL (listed as Homo sapiens) [peptide from ZN830_HUMAN],
"17,31",ILTSGTL (listed as Homo sapiens) [peptide from RTEL1_HUMAN],
"9,77",ILTLIEL (listed as Homo sapiens) [peptide from SMG1_HUMAN],
"7,89",ILCDITL (listed as Homo sapiens) [peptide from KLH32_HUMAN],
"16,14",ILTKPTL (listed as Homo sapiens) [peptide from MYST3_HUMAN],
"7,06",IQTISTL (listed as Homo sapiens) [peptide from SCC4_HUMAN],
"92,04",ILIIVTL (listed as Homo sapiens) [peptide from P63_HUMAN],
"8,22",IHAIITL (listed as Homo sapiens) [peptide from LRC40_HUMAN],
"6,81",ILVIITR (listed as Homo sapiens) [peptide from LONF2_HUMAN],
"40,18",DLTIIDL (listed as Homo sapiens) [peptide from MX2_HUMAN],
"23,80",ILTISSL (listed as Homo sapiens) [peptide from KV122_HUMAN],
"8,65",ILTKISL (listed as Homo sapiens) [peptide from HEAT1_HUMAN],
"6,20",ILTFKTL (listed as Homo sapiens) [peptide from DYH3_HUMAN],
